Data on 1 substance can be found in patent US20240270846A1.

Where “and” joins values, the source holds several entries; their conditions need not be identical. Equal entries are not always repeated.

This assay deals with ECM (extracellular matrix). As to the kind of experiment: ECL assay on ECM (Matrigel)-coated plate, MRA reference of the same plate or date.

Regarding MRA (antibody), the ECL reaction (MRA) is 448 and 564.
